Experimental data reported in article PMC6599011, “Transcription factor YcjW controls the emergency H2S production in E. coli”.
Positions count from the first letter of the chain named.

What was measured:
Settings in all cases: protein: recombinant; tags: His-SUMO (pET28-SUMO), cleaved with SUMO protease; chain copies: 2; label: 32P 5' end (T4 PNK); blunt
YcjW [1] = target: T1, YcjW (Escherichia coli K-12 MG1655, UniProt P77615 1-332); experiment: EMSA; shift from about 1:0.5 DNA:protein, increasing with protein; EMSA with 32P-labelled dsDNA; binding buffer as in cited ref 14, not given; sugars preincubated with protein 20 min at room temperature; protein stored in 20 mM Tris-Cl pH 8.0, 50 mM NaCl, 1 mM DTT
T1 sequence: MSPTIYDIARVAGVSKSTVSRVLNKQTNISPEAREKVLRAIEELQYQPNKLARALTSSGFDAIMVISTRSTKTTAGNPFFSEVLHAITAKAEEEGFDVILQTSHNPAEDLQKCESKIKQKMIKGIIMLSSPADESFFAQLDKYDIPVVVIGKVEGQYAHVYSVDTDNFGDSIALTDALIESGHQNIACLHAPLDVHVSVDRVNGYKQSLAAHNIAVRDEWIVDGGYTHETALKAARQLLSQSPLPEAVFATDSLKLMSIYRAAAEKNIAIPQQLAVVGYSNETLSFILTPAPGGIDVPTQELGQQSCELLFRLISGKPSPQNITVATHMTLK

YcjW [2] = target: T1, YcjW; experiment: EMSA; shift from DNA:protein 1:0.5; no free probe at 1:2; EMSA with 32P-labelled dsDNA; binding buffer as in cited ref 14, not given; sugars preincubated with protein 20 min at room temperature; protein stored in 20 mM Tris-Cl pH 8.0, 50 mM NaCl, 1 mM DTT
YcjW S258N = target: T2, YcjW S258N (Escherichia coli K-12 MG1655, UniProt P77615 1-332, S258N); experiment: as above
T2 sequence: T1 sequence with S258N

B1: ycjM EMSA probe (LL58/LL59) (dsDNA)
DNA 1: GAGTAGTCTCTCGTTTCATGGGACCGCTACCACGGAAAGGCAACATGAAAC
DNA 2: GTTTCATGTTGCCTTTCCGTGGTAGCGGTCCCATGAAACGAGAGACTACTC
B1: binds (YcjW [1]).

B2: narP EMSA probe (LL62/LL63) (dsDNA)
DNA 1: GGTAACATTCACGCGCCTGGTAGCGTTACCAACGCTACGCTCAAACATAATGATTC
DNA 2: GAATCATTATGTTTGAGCGTAGCGTTGGTAACGCTACCAGGCGCGTGAATGTTACC
B2: binds (YcjW [2]); binds (YcjW S258N).
